Here are results for 19 variants from the RNAGym collection of RNA variant scans (doi:10.1073/pnas.2313332121).

B1: TPR 5TU (parent)
chain: GGAUCUUCUCGAUCUAACAAAAAAGACAAAUCUGCCACAAAGCUUGAGAGCAUCUUCGGAUGCAGAGGCGGCAGCCUUCGGUGGCGCGAUAGCGCCAACGUUCUCAACUAUGACACGCAAAACGCGUGCUCCGUUGAAUGGAGUUUAUCAUG

Variants at the floor of the assay were thinned out. A value given as a limit tells only on which side of the number the result lay.

The variants in this data set derive from B1. In words: polymerase ribozyme fitness, log enrichment relative to wild type (log ratio); higher = more active; in vitro selection for triplet polymerase activity. A digest of the protocol:
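A single round of triplicate in vitro selection, including frozen incubation at −7 °C, was applied to PCR-built, transcribed mutant libraries of each subunit of a heterodimeric triplet polymerase ribozyme. Illumina sequencing of input and output libraries retained genotypes with ≥10 input reads and ≥1 read per output. Fitness is the base-2 logarithm of genotype enrichment divided by wild-type enrichment, from inverse-variance-weighted replicate averages.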
As for GGAUCUUCACGAUCUAACAAAAAAGACAAAGCUGCAACAAAGCUUGAGAGCAUCUUCGGAUGCAGAGGCGGCAGCCUUCGGUGGCGCGAUAGGGCCAACGUUGUCAACUAUGACACGCAAAACGCGUGCUCCGUUGAAUCGAGUUUAUCAUG, the “polymerase ribozyme fitness (log ratio)” value is no more than -4.2.

GGAUCUUCUCGAUCUAACAAAAAAGACAAAUCUGCCACAAAGCUUGAGAGCAUCUUCGGAUGCAGAGGCGGCAGCCUUCGGUGGCGCGAUAGCGCCAACGUUCUCAACUAUGACACGCAAAACGCAUGCUCCGUUGAAUGUAGUUUAUCAUG: the “polymerase ribozyme fitness (log ratio)” value is -2.59.

Regarding GGAUCUUCUCGAUCUAACAAAAAAGACAAAUCUGCCACAAAGCUUGAGAGCAACUUCGGAUGCAGAGGCGGCAGCCUUCGGUGGAGCGAUAGCGCCAACGUUCUCAACUAUGACACGCAAAACACGUGCUCCGUUGAAUGGAGUUUAUCAUG, the “polymerase ribozyme fitness (log ratio)” value was -2.89.

Take GGAUCUUCUCGAUCUAACAAAAGAGACAAAUCUGCCACAAAGCUUGAGAGCAUCUUCGGAUGCAGAGGCGGCAGCCUUCGGUGGCGCGAUAGCGCCAACGUUCUCAACUAUGACACGCAAAACGCGGGCUCCGUUGAAUGGAGUUUAUCAUG: the “polymerase ribozyme fitness (log ratio)” value was no more than -4.2.

For the variant GGAUCUUCUCGAUCUAACAUAAAAGACAAAUCUGCCACAAAGAUUGAGAGCAUCUUCGGAUGCAGAGGUGGCAGCCUUCGGUGGCGCGAUAGCGCCAACGUUCUCAACUAUGACACGCAAAACGCGUGCUCCGUUGAGUGGAGUUUAUCAUG, the “polymerase ribozyme fitness (log ratio)” value was no more than -4.2.

Take GGAUCUUCUCGAUCUAACAAAAAAGACAAAUCUGCCACAAAGCUUGAGAGCAUCUUCGGAUGCAGAGGCGGCAGCCUUCGGUGGCGCGAUAGCGCCAACGUUCUCACCUAUGACACGCAAAACGCGUGCUCCGUUGAAUGGAGUUUAUCAUG: the “polymerase ribozyme fitness (log ratio)” value is -3.58.

Consider GGGUCUUCUCGAUCUAACAAAAAAGCCAAAUCUGCCACAAAGCUUGAGAGCAUCUUCGGGUGCAGAGGCGGCAGCCUUCGGUGGCGCGAUAGCGCCAACGUUCUCAACUAUGACACGCAAAACGCGUGCUCCGUUGAAUGGAGUUUAUCAUG, for which the “polymerase ribozyme fitness (log ratio)” value was -2.26.

For the variant GGAUCUUCUCGAUCUAACAAAAAAGACUAAUCUGCCACAAAGCUUGAGAGCAUCUUCGGCUGCAGAGGCGGCAGCCUUCGGUGGCGCGAUGGCGCCAUCGUUCUCAACUAUGACACGCAAAACGCGUGCUCCGUUGAAUGGAGUUUAUCAUG, the “polymerase ribozyme fitness (log ratio)” value was no more than -4.2.

In the case of GGAUCUUCUCGAUCUAACAAAAAAGACAAAUCUGCCACAAAGCUCGAGAGCAUCUUAGGAUGCAGAGGCGGCACCCUUCUGUGGCGCGAUAGCGCCAACGAUCUCAACUAUGACACGCAAAACGCGUGCUCCGUUGAAAGGACUUUAUCAUG, the “polymerase ribozyme fitness (log ratio)” value was no more than -4.2.

In the case of GGAUCUUCUCGAUCUAACAAAAAAGACAAAUCAGCCACAAAGCUUGAGAGCAUCUUCGGAUGCAGAGGCGGCAGCCUUCGGUGGCGCGAUAGCGCCAACGUUCUCAACUAUGACACGCAUAACGCGUGCUCCGUUGAAUGGAGUUUAUCAUG, the “polymerase ribozyme fitness (log ratio)” value was -4.01.

In the case of GGAUCUUCUCGAUCUAACAAAAAAGACAAAUCUGCCACAAAGCUUGAGAGCAUCUUCGGAUGCAGAGGCGGCAGCCUUCGGUGGCGCGAUAGCGCCAACGUUCUCACCUAUGACACGCGAAACGAGUGCUCCGUUGAAUGGAGUUUAUCAUG, the “polymerase ribozyme fitness (log ratio)” value was no more than -4.2.

In the case of GGAUCUUCUCGAUCUAACAAAAAAGACAAAUCUGCCACCAAUAUUGAGAGCAUCUUCGGAUGCAGAGGCGGCAGCCUUCGGUGGCGCGAUAUCGCCAACGUUCUCAACUAUGACACGCAAAACGCGAGCUCCGUUGAAUGGAGUUUAUCGUG, the “polymerase ribozyme fitness (log ratio)” value was -4.19.

As for GGAUCUUCUCGAUGUAACAAAAAAGACAAAUCUGACACAAAGCUUGAGAGCAUCUUCGGAUGCAGAGGCGGCAUCCUUCGGUGGCACGAUAGCGCCAACGUUCUCAACUAUGACACGCAUAACGCGUGCUCCGUUGAAUGGAGUUUAUCAUG, the “polymerase ribozyme fitness (log ratio)” value was no more than -4.2.

Take GGAUCUUCUCGAUCUAACAAAAAAGACAAAUCUGCCACAAAGCUUGAGAGCAUCUUCGGAUGCAGAGGCGGCGGCCUUCGAUAGCGCGAUAGCGCAAACGUUCUCAACUAUGACACGCUAAACCCGUGCUCCGUUGAAUGGAGUUUAUCAUG: the “polymerase ribozyme fitness (log ratio)” value is no more than -4.2.

Turning to GGAUCUUCUCGAUCUAACAAAAGAGACAAAUGUGCCACAAAGCUUGAGAGCUUCUUCGGAUGCAGAGGCGGCAGCCUUCGGUGGAGCGAUAGCGCCAACGUGCUCAACUAUGACACGCAAAACGCGGGCUCCGUUGAAUGGAGUUUAUCAUG, the “polymerase ribozyme fitness (log ratio)” value is no more than -4.2.

Turning to GGAUCUUCUCGAUCUAACAAAAAAGACAAAUCUGCCACAAAGCUUGAGAUCAUCUUCGGAUGCAGAGGCGGCAGCCUUCGGUGGCGCGAUAGCGCCAACGUUCUCAACUAUGACACGCAAAACGCGUGCUCCGUUUAAUGGAGUUUAUGAUG, the “polymerase ribozyme fitness (log ratio)” value is -4.16.

As for GGAUCUUCUCGAUCUAACAAAAACGACAAAUCUGCCACAAUGCUUGAGAGCAUAUUCGGAUGCAGAGGCGGCAGCCUUCGGUGGCGCGAUAGCGCCAACGUUCUCAACUAUGACACGCAAAACGCGUGCUCCGUUGAAUGGAGUUUAUCAUG, the “polymerase ribozyme fitness (log ratio)” value was no more than -4.2.

As for GGAUCUUCUCGAUCUAACAUAAAAGACAAAUCUGCCACAAAGCUUGAGAGCAUCUUCGGAUGCAGAGGCGGCAGCCUUCGGUGUCGCGAUAGCGCCAGCGUUCUCAACUAUGACACGCAAAACGCGUGCUCCGUUGAAUGGAGUUUAUCAUG, the “polymerase ribozyme fitness (log ratio)” value is -4.1.

As for GGAUCUUCUCGAUCUAACAAAAAAGACAAAUCUGCCACAAAGCUUGAGAGCAUCUUCGGAUGCAGAGGCGGCAGCCUUCGGUGGCGCGAUAGCCCUAACGUUCUCAACUAUCACACGCAAAACGCGUGCUCCGUUGAAUGGAGUUCAUCAUG, the “polymerase ribozyme fitness (log ratio)” value is no more than -4.2.
